Laboratory results published in US8895526B2, “Identification of RNAI targets and use of RNAI for rational therapy of chemotherapy-resistant leukemia and other cancers” (Cold Spring Harbor Laboratory, priority 2009, dated 2014).

B1: Myo7a.618: shRNA, SEQ ID NO: 149 (nucleic acid)
chain: TGCTGTTGACAGTGAGCGCCCGCCAGTACACCAACAAGAATAGTGAAGCCACAGATGTATTCTTGTTGGTGTACTGGCGGATGCCTACTGCCTCGGA
B2: Rbks.337: shRNA, SEQ ID NO: 172 (nucleic acid)
chain: TGCTGTTGACAGTGAGCGAAGCCTCCATAATTGTCAATAATAGTGAAGCCACAGATGTATTATTGACAATTATGGAGGCTGTGCCTACTGCCTCGGA
B3: Htatip2.575: shRNA, SEQ ID NO: 133 (nucleic acid)
chain: TGCTGTTGACAGTGAGCGACAGCAGTTTCTTATACCTACATAGTGAAGCCACAGATGTATGTAGGTATAAGAAACTGCTGGTGCCTACTGCCTCGGA
B4: Cdc42ep1.317: shRNA, SEQ ID NO: 103 (nucleic acid)
chain: TGCTGTTGACAGTGAGCGCCTAGCAGTTGTAAGCAATCAATAGTGAAGCCACAGATGTATTGATTGCTTACAACTGCTAGTTGCCTACTGCCTCGGA
B5: Wnt10b.1717: shRNA, SEQ ID NO: 190 (nucleic acid)
chain: TGCTGTTGACAGTGAGCGCCTCGAATAGACTAAGATGAAATAGTGAAGCCACAGATGTATTTCATCTTAGTCTATTCGAGTTGCCTACTGCCTCGGA
B6: Casp1.248: shRNA, SEQ ID NO: 100 (nucleic acid)
chain: TGCTGTTGACAGTGAGCGCCAGTGAGTATAGGGACAATAATAGTGAAGCCACAGATGTATTATTGTCCCTATACTCACTGATGCCTACTGCCTCGGA
B7: Lima1.3235: shRNA, SEQ ID NO: 138 (nucleic acid)
chain: TGCTGTTGACAGTGAGCGAACGGACATTGTACCCAGATAATAGTGAAGCCACAGATGTATTATCTGGGTACAATGTCCGTCTGCCTACTGCCTCGGA
B8: Pdgfrb.1028: shRNA, SEQ ID NO: 163 (nucleic acid)
chain: TGCTGTTGACAGTGAGCGAAACGACCATGGCGATGAGAAATAGTGAAGCCACAGATGTATTTCTCATCGCCATGGTCGTTCTGCCTACTGCCTCGGA
B9: Ctbs.796: shRNA, SEQ ID NO: 110 (nucleic acid)
chain: TGCTGTTGACAGTGAGCGCCCCACAGAGCATCTCACTAAATAGTGAAGCCACAGATGTATTTAGTGAGATGCTCTGTGGGTTGCCTACTGCCTCGGA
B10: Nrp1.2022: shRNA, SEQ ID NO: 154 (nucleic acid)
chain: TGCTGTTGACAGTGAGCGACACAAGGTTCATCAGGATCTATAGTGAAGCCACAGATGTATAGATCCTGATGAACCTTGTGGTGCCTACTGCCTCGGA
B11: Nmur1.7: shRNA, SEQ ID NO: 152 (nucleic acid)
chain: TGCTGTTGACAGTGAGCGCCTGCAATATCAGTGAGTTCAATAGTGAAGCCACAGATGTATTGAACTCACTGATATTGCAGATGCCTACTGCCTCGGA
B12: Rgs6.896: shRNA, SEQ ID NO: 173 (nucleic acid)
chain: TGCTGTTGACAGTGAGCGCCAAGTGAAGATTGACCGGAAATAGTGAAGCCACAGATGTATTTCCGGTCAATCTTCACTTGTTGCCTACTGCCTCGGA
B13: Pde1b.2027: shRNA, SEQ ID NO: 162 (nucleic acid)
chain: TGCTGTTGACAGTGAGCGCTGCCTCCAAGTTTCTAAGCAATAGTGAAGCCACAGATGTATTGCTTAGAAACTTGGAGGCAATGCCTACTGCCTCGGA

Tests used:
[1] = system: immortalized murine embryonic fibroblasts (Mef); experiment: Pooled negative selection RNAi screening (deep sequencing); assay type: cell-based; settings: deep sequencing reads, on dox compared to initial representation
Excerpt: (§1) In addition to the analysis of single shRNAs for inhibitory effects in vitro and in vivo, the combination of tet-on competent cancer models and tet-regulatable shRNA expression vectors allowing for monitoring shRNA expression through fluorescent and other reporter genes (e.g. TRMPV and derivates) facilitates pooled shRNA negative selection screening (FIG. 37). In such approaches a pool of over 1,000 shRNAs are retrovirally transduced into tet-on competent cancer models (here MLL/AF9+Nras AML) and selected for shRNA containing cells by either drug selection (e.g. G418) or fluorescence-activated cell sorting (FACS). Selected cell populations harboring a library of shRNAs then can be cultured in the absence or presence of doxycyline (off dox and on dox, respectively) or injected into syngeneic recipient mice that are either treated with doxycyline or left untreated.
(§2) The representation of each shRNA within the pool can be effectively assessed by deep sequencing of shRNA cassettes in a given cell population. For this, genomic DNA is extracted from leukemia cells containing the shRNA pool, and the shRNA guide or passenger strand (21-22 target gene specific nucleotides of the shRNA) by PCR using primers specific for common sequences flanking the gene specific part of the shRNA (e.g. miR30 19 nt loop and miR30 common 3′ sequence). The primers also contain 5′-adapters required for deep sequencing (e.g. for Illumina/Solexa sequencing primers are p5+mir3: 5′-[…]-3′ (SEQ ID NO: 215) and p7+Loop: 5′-[…]-3′ (SEQ ID NO: 216)). Deep sequencing is subsequently performed using a primer binding the flanking nucleotide sequence next to the target gene specific part of the shRNA (for Illumina/Solexa platforms the primer is mir30EcoR1Seq: 5′-TAGCCCCTTGAATTCCGA GGCAGTAGGCA-3′ (SEQ ID NO: 217)).
(§3) The use of shRNA vectors that allow for monitoring of shRNA expression through fluorescent and other reporter genes (e.g. TRMPV) in combination with tet-on competent mouse models facilitates the isolation of pure shRNA expressing cell populations (e.g. by FACS, for TRMPV by sorting of Venus/dsRed double positive cells (FIG. 38). This selection of shRNA expressing cells prior to DNA isolation strongly reduces the background caused by cell populations with insufficient shRNA induction, which are predicted to contain genomic representation of the whole shRNA library without shRNA specific shifts in representation. The final readout is based on the comparison of shRNA representation (i.e. deep sequencing read numbers) before the assay (t0) or from cell populations left without doxycycline treatment (off dox) to those where shRNA were induced and cells subsequently sorted for shRNA expressing cells (on dox). shRNA with inhibitory effects are predicted to loose representation (show less reads) on dox compared to t0 and off dox.
(§4) This pooled is RNAi screening strategy can be applied to rapidly survey inhibitory effects of large pools of shRNAs (˜1000 at a time) in different tet-on competent cancer models and normal control cells (FIG. 39). For example, a pool of 1166 shRNAs targeting 836 predominantly druggable genes associated with MLL fusion proteins in human leukemia and mouse models of MLL/AF9-induced AML (MLL cure library) was analyzed in pooled negative selection screening in tet-on competent MLL/AF9+Nras AML and immortalized murine embryonic fibroblasts (Mef) in parallel. To establish and validate this screening approach, the pool also contained 64 control shRNAs each of which have been previously analyzed for inhibitory effects in both AML cells and Mefs using the same experimental system (FIG. 40).
(§5) After pooling of 1166 experimental and 64 control shRNAs the presence of shRNAs was verified by deep sequencing of shRNAs within the plasmid vector pool (FIG. 41). […]

[2] = system: tet-on competent MLL/AF9+Nras AML; experiment: as above; assay type: cell-based, mouse; settings: deep sequencing reads, On Dox compared to T0
Excerpt: as §1, §2, §3, §4, §5

Molecule | Fold depletion in Mef [1] | Fold depletion in AML [2]
B1 | 4.42 Fold | 14.79 Fold
B2 | 1.07 Fold | 17.02 Fold
B3 | 1.08 Fold | 15.74 Fold
B4 | 1.47 Fold | 14.91 Fold
B5 | 1.35 Fold | 15.69 Fold
B6 | 3.84 Fold | 16.16 Fold
B7 | 0.56 Fold | 16.44 Fold
B8 | 2.15 Fold | 16.16 Fold
B9 | 0.19 Fold | 19.44 Fold
B10 | 1.80 Fold | 13.60 Fold
B11 | 2.58 Fold | 19.45 Fold
B12 | 1.99 Fold | 14.33 Fold
B13 | 1.31 Fold | 15.12 Fold
